Experimental data as given in patent US20250340595A1 (published 2025).
Starred links: 1 amine or outer side, 2 acyl side, 3 side chain; linkers in the order of their positions; H or OH if unused. Positions of bridges follow the written chain, without caps; N, C: chain ends. Non-standard residues stand in square brackets, D forms with d. No end group written: not given here. Fluorescein = fluorescein label on the C-terminal Lys side chain; TATB = O=C(C[*:1])N1CN(C(=O)C[*:2])CN(C(=O)C[*:3])C1; Sar = CNCC(=O)O

What follows are binders tested against T1, Recombinant cynomolgus TfR1, His6-tagged (a.a. 89-760) (cynomolgus, UniProt H9EXL1 89-760 (rhesus entry)) (assay: FP competition table (Table 6)).
T1 construct: range 89-760; same product number named for FP and SPR; also called Cyno TfR1; Acro Biosystems TFR-C524a
T1 sequence (chain, as listed by the source): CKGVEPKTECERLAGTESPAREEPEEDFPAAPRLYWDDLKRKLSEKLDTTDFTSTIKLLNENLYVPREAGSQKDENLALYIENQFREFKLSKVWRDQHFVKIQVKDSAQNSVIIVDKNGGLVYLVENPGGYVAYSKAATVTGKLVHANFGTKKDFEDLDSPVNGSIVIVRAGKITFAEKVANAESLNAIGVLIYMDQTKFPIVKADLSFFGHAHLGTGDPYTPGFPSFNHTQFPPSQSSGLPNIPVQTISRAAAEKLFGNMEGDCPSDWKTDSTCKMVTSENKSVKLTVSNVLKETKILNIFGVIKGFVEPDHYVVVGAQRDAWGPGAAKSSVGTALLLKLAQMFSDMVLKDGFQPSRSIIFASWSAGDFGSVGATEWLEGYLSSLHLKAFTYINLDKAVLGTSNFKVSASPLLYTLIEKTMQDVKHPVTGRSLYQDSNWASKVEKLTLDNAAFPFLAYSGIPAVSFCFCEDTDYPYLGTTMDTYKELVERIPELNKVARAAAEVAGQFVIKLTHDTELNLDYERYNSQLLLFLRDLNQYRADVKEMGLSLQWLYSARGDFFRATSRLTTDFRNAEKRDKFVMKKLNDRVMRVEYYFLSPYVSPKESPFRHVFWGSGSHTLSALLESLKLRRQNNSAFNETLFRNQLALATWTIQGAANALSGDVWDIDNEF

Row | Ki [nM] | Binder
1 | 4040 | ACSPDAHLGCISACA[Sar][Sar][Sar][Sar][Sar][Sar]K(Fluorescein) (linker 2-10-14 via TATB) [BCY15770]
2 | 7080 | ACSPAAHLGCISYCA[Sar][Sar][Sar][Sar][Sar][Sar]K(Fluorescein) (linker 2-10-14 via TATB) [BCY15772]
3 | 3470 | ACSPDAHAGCISYCAXXXXXXK (3 Cys on TATB; [Sar6]; C-terminal Lys carries fluorescein) [BCY15774]
4 | 1060 | ACSADAHLGCISYCA[Sar][Sar][Sar][Sar][Sar][Sar]K(Fluorescein) (linker 2-10-14 via TATB) [BCY15771]
5 | 2300 | ACSPDAALGCISYCA[Sar][Sar][Sar][Sar][Sar][Sar]K(Fluorescein) (linker 2-10-14 via TATB) [BCY15773]
6 | 2910 | ACSPDAHLGCIAYCA[Sar][Sar][Sar][Sar][Sar][Sar]K(Fluorescein) (linker 2-10-14 via TATB) [BCY15777]

These binders were tested against T2, Human TfR1 protein (R&D Systems, 2474-TR or Acro Biosystems, CD1-H5243) (human, UniProt P02786 89-760) (assay: FP competition, competitor BCY15768).
T2 sequence (P02786 89-760 limits assumed): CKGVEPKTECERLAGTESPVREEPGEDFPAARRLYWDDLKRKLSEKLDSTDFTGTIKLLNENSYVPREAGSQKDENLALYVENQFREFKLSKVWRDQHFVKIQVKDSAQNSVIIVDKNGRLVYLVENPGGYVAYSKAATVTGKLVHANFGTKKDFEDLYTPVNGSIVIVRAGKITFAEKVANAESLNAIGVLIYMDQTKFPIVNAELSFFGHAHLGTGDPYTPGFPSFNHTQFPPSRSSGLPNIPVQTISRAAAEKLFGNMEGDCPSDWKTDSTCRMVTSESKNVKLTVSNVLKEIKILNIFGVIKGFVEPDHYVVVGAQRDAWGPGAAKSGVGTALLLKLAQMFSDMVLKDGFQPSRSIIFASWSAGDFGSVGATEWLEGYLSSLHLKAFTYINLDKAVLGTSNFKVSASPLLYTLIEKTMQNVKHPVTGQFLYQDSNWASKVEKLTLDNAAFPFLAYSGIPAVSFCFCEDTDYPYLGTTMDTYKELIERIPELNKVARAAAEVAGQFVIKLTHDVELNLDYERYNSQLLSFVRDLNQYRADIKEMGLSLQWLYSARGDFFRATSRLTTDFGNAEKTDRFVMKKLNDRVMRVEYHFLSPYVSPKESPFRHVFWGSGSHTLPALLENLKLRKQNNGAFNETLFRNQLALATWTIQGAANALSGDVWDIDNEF

Row | Binder | Ki [nM]
7 | IDSNCPNDAHLGCISYCA (linker 5-13-17 via TATB (inferred)) [BCY17118] | 70
8 | ESFCSPDAHLGCISYCA (linker 4-12-16 via TATB) [BCY17113] | 103
9 | ACSPDAHLGCISYCPHP-NH2 (linker 2-10-14 via TATB (inferred)) [BCY17115] | 30
10 | HTSCSPDAHLGCISYCA (linker 4-12-16 via TATB) [BCY17111] | 86
11 | ACSPDAHLGCISYCEHQE (linker 2-10-14 via TATB (inferred)) [BCY17119] | 160

The remaining lines, values ahead:

Row | Ki [nM] | Binder
12 | 37 | TYMNCPPDAHLGCISYCA (linker 5-13-17 via TATB (inferred)) [BCY17117]
13 | 75 | WGKSCPIDAHLGCISYCA (linker 5-13-17 via TATB (inferred)) [BCY17116]
14 | 3 | NWNCPXDAYLGCXSYC (3 Cys on TATB; N-terminal acetyl (Ac); core as printed CP[HyP]DAYLGC[tBuGly]SYC) [BCY17993]
15 | 22 | HWMCSPDAHLGCISYCA (linker 4-12-16 via TATB) [BCY17110]
16 | 2 | CPXDAYLGCXSYC (3 Cys on TATB; N-terminal acetyl (Ac); core as printed CP[HyP]DAYLGC[tBuGly]SYC) [BCY17991]

What follows are binders tested against T1, Recombinant cynomolgus TfR1, … (assay: SPR, TfR1 on chip).

Row | Binder | Kd [nM]
17 | IDSNCPNDAHLGCISYCA (linker 5-13-17 via TATB (inferred)) [BCY17118] | 1960
18 | ESFCSPDAHLGCISYCA (linker 4-12-16 via TATB) [BCY17113] | 1660
19 | ACSPDAHLGCISYCPHP-NH2 (linker 2-10-14 via TATB (inferred)) [BCY17115] | 1240
20 | ACSPAAHLGCISYCA[Sar][Sar][Sar][Sar][Sar][Sar]K(Fluorescein) (linker 2-10-14 via TATB) [BCY15772] | 99000
21 | ACSPDAHAGCISYCAXXXXXXK (3 Cys on TATB; [Sar6]; C-terminal Lys carries fluorescein) [BCY15774] | 41000
22 | ACSADAHLGCISYCA[Sar][Sar][Sar][Sar][Sar][Sar]K(Fluorescein) (linker 2-10-14 via TATB) [BCY15771] | 4000
23 | ACSPDAALGCISYCA[Sar][Sar][Sar][Sar][Sar][Sar]K(Fluorescein) (linker 2-10-14 via TATB) [BCY15773] | 2600
24 | HTSCSPDAHLGCISYCA (linker 4-12-16 via TATB) [BCY17111] | 907
25 | ACSPDAHLGCISYCEHQE (linker 2-10-14 via TATB (inferred)) [BCY17119] | 5650

The remaining lines, values ahead:

Row | Kd [nM] | Binder
26 | 805 | TYMNCPPDAHLGCISYCA (linker 5-13-17 via TATB (inferred)) [BCY17117]
27 | 474 | WGKSCPIDAHLGCISYCA (linker 5-13-17 via TATB (inferred)) [BCY17116]
28 | 235 | NWNCPXDAYLGCXSYC (3 Cys on TATB; N-terminal acetyl (Ac); core as printed CP[HyP]DAYLGC[tBuGly]SYC) [BCY17993]
29 | 232 | HWMCSPDAHLGCISYCA (linker 4-12-16 via TATB) [BCY17110]
30 | 35 | CPXDAYLGCXSYC (3 Cys on TATB; N-terminal acetyl (Ac); core as printed CP[HyP]DAYLGC[tBuGly]SYC) [BCY17991]

These binders were tested against T3, Recombinant human TfR1, His6-tagged (a.a. 89-760) (human, UniProt P02786 89-760) (assay: SPR, TfR1 on chip).
T3 construct: range 89-760; captured and coupled on an NTA chip for SPR; also called transferrin receptor 1; CD71
T3 sequence (P02786 89-760 limits assumed): as the sequence (P02786 89-760 limits assumed) above

Row | Binder | Kd [nM]
31 | IDSNCPNDAHLGCISYCA (linker 5-13-17 via TATB (inferred)) [BCY17118] | 120
32 | ESFCSPDAHLGCISYCA (linker 4-12-16 via TATB) [BCY17113] | 308
33 | ACSPDAHLGCISYCPHP-NH2 (linker 2-10-14 via TATB (inferred)) [BCY17115] | 60
34 | HTSCSPDAHLGCISYCA (linker 4-12-16 via TATB) [BCY17111] | 8.3
35 | ACSPDAHLGCISYCEHQE (linker 2-10-14 via TATB (inferred)) [BCY17119] | 212

The next lines start with the values.

Row | Kd [nM] | Binder
36 | 4.2 | TYMNCPPDAHLGCISYCA (linker 5-13-17 via TATB (inferred)) [BCY17117]
37 | 1 | WGKSCPIDAHLGCISYCA (linker 5-13-17 via TATB (inferred)) [BCY17116]
38 | 9 | NWNCPXDAYLGCXSYC (3 Cys on TATB; N-terminal acetyl (Ac); core as printed CP[HyP]DAYLGC[tBuGly]SYC) [BCY17993]
39 | 15 | HWMCSPDAHLGCISYCA (linker 4-12-16 via TATB) [BCY17110]
40 | 3.4 | CPXDAYLGCXSYC (3 Cys on TATB; N-terminal acetyl (Ac); core as printed CP[HyP]DAYLGC[tBuGly]SYC) [BCY17991]

Molecular target: T2, Human TfR1 protein (R&D Systems, …)
Assay: FP competition, competitor BCY15768
Remark: another data set of the same source

Row | Binder | Ki [nM]
41 | IDSNCPNDAHLGCISYCA (linker 5-13-17 via TATB (inferred)) [BCY17118] | 70
42 | ESFCSPDAHLGCISYCA (linker 4-12-16 via TATB) [BCY17113] | 103
43 | ACSPDAHLGCISYCPHP-NH2 (linker 2-10-14 via TATB (inferred)) [BCY17115] | 30
44 | HTSCSPDAHLGCISYCA (linker 4-12-16 via TATB) [BCY17111] | 86
45 | ACSPDAHLGCISYCEHQE (linker 2-10-14 via TATB (inferred)) [BCY17119] | 160

More lines, now with the values ahead:

Row | Ki [nM] | Binder
46 | 37 | TYMNCPPDAHLGCISYCA (linker 5-13-17 via TATB (inferred)) [BCY17117]
47 | 75 | WGKSCPIDAHLGCISYCA (linker 5-13-17 via TATB (inferred)) [BCY17116]
48 | 5 | NWNCPXDAYLGCXSYC (3 Cys on TATB; N-terminal acetyl (Ac); core as printed CP[HyP]DAYLGC[tBuGly]SYC) [BCY17993]
49 | 22 | HWMCSPDAHLGCISYCA (linker 4-12-16 via TATB) [BCY17110]
50 | 3 | CPXDAYLGCXSYC (3 Cys on TATB; N-terminal acetyl (Ac); core as printed CP[HyP]DAYLGC[tBuGly]SYC) [BCY17991]
